Measurements taken from US8748182B2, “Mutant proteins and methods for producing them” (Heptares Therapeutics Limited, priority 2007, dated 2014).
Where a chain is given by its changes, count along the chain named. Numbers in names are those of the source.

B1: 1260A: NTR point mutant (Ile 260) (protein, UniProt P20789 1-424, looked up, variant I260A)
Neurotensin receptor type 1: MHLNSSVPQGTPGEPDAQPFSGPQSEMEATFLALSLSNGSGNTSESDTAGPNSDLDVNTDIYSKVLVTAIYLALFVVGTVGNSVTAFTLARKKSLQSLQSTVHYHLGSLALSDLLILLLAMPVELYNFIWVHHPWAFGDAGCRGYYFLRDACTYATALNVASLSVERYLAICHPFKAKTLMSRSRTKKFISAIWLASALLAIPMLFTMGLQNRSGDGTHPGGLVCTPIVDTATVKVVIQVNTFMSFLFPMLVISILNTVAANKLTVMVHQAAEQGRVCTVGTHNGLEHSTFNMTIEPGRVQALRHGVLVLRAVVIAFVVCWLPYHVRRLMFCYISDEQWTTFLFDFYHYFYMLTNALFYVSSAINPILYNLVSANFRQVFLSTLACLCPGWRHRRKKRPTFSRKPNSMSSNHAFSTSATRETLY
B2: R395A: NTR point mutant (protein, UniProt P20789 1-424, looked up, variant R395A)
Neurotensin receptor type 1: B1 Neurotensin receptor type 1 with A260I, R395A
B3: N370A: NTR point mutant (protein, UniProt P20789 1-424, looked up, variant N370A)
Neurotensin receptor type 1: B1 Neurotensin receptor type 1 with A260I, N370A
B4: A69L: NTR point mutant (protein, UniProt P20789 1-424, looked up, variant A69L)
Neurotensin receptor type 1: B1 Neurotensin receptor type 1 with A69L, A260I
B5: L308A: NTR point mutant (protein, UniProt P20789 1-424, looked up, variant L308A)
Neurotensin receptor type 1: B1 Neurotensin receptor type 1 with A260I, L308A
B6: V313A: NTR point mutant (protein, UniProt P20789 1-424, looked up, variant V313A)
Neurotensin receptor type 1: B1 Neurotensin receptor type 1 with A260I, V313A
B7: A73L: NTR point mutant (protein, UniProt P20789 1-424, looked up, variant A73L)
Neurotensin receptor type 1: B1 Neurotensin receptor type 1 with A73L, A260I
B8: G215A: NTR point mutant (protein, UniProt P20789 1-424, looked up, variant G215A)
Neurotensin receptor type 1: B1 Neurotensin receptor type 1 with G215A, A260I
B9: L310A: NTR point mutant (protein, UniProt P20789 1-424, looked up, variant L310A)
Neurotensin receptor type 1: B1 Neurotensin receptor type 1 with A260I, L310A
B10: F380A: NTR point mutant (protein, UniProt P20789 1-424, looked up, variant F380A)
Neurotensin receptor type 1: B1 Neurotensin receptor type 1 with A260I, F380A
B11: F342A: NTR point mutant (protein, UniProt P20789 1-424, looked up, variant F342A)
Neurotensin receptor type 1: B1 Neurotensin receptor type 1 with A260I, F342A
B12: V165A: NTR point mutant (protein, UniProt P20789 1-424, looked up, variant V165A)
Neurotensin receptor type 1: B1 Neurotensin receptor type 1 with V165A, A260I
B13: V309A: NTR point mutant (protein, UniProt P20789 1-424, looked up, variant V309A)
Neurotensin receptor type 1: B1 Neurotensin receptor type 1 with A260I, V309A
B14: T294A: NTR point mutant (protein, UniProt P20789 1-424, looked up, variant T294A)
Neurotensin receptor type 1: B1 Neurotensin receptor type 1 with A260I, T294A
B15: E166A: NTR point mutant (protein, UniProt P20789 1-424, looked up, variant E166A)
Neurotensin receptor type 1: B1 Neurotensin receptor type 1 with E166A, A260I
B16: G390A: NTR point mutant (protein, UniProt P20789 1-424, looked up, variant G390A)
Neurotensin receptor type 1: B1 Neurotensin receptor type 1 with A260I, G390A
B17: G306A: NTR point mutant (protein, UniProt P20789 1-424, looked up, variant G306A)
Neurotensin receptor type 1: B1 Neurotensin receptor type 1 with A260I, G306A
B18: V360A: NTR point mutant (protein, UniProt P20789 1-424, looked up, variant V360A)
Neurotensin receptor type 1: B1 Neurotensin receptor type 1 with A260I, V360A
B19: S373A: NTR point mutant (protein, UniProt P20789 1-424, looked up, variant S373A)
Neurotensin receptor type 1: B1 Neurotensin receptor type 1 with A260I, S373A
B20: P389A: NTR point mutant (protein, UniProt P20789 1-424, looked up, variant P389A)
Neurotensin receptor type 1: B1 Neurotensin receptor type 1 with A260I, P389A
B21: V229A: NTR point mutant (protein, UniProt P20789 1-424, looked up, variant V229A)
Neurotensin receptor type 1: B1 Neurotensin receptor type 1 with V229A, A260I
B22: Nag7m: NTR with F358A+A86L+I260A+F342A (protein)
chain: TSESDTAGPNSDLDVNTDIYSKVLVTAIYLALFVVGTVGNSVTLFTLARKKSLQSLQSTVHYHLGSLALSDLLILLLAMPVELYNFIWVHHPWAFGDAGCRGYYFLRDACTYATALNVASLSVERYLAICHPFKAKTLMSRSRTKKFISAIWLASALLAIPMLFTMGLQNRSGDGTHPGGLVCTPIVDTATVKVVIQVNTFMSFLFPMLVISILNTVAANKLTVMVHQAAEQGRVCTVGTHNGLEHSTFNMTIEPGRVQALRHGVLVLRAVVIAFVVCWLPYHVRRLMFCYISDEQWTTALFDFYHYFYMLTNALAYVSSAINPILYNLVSANFRQVFLSTLACLCPGWRHRRKKRPTFSRKPNSMSSNHAFSTSATRETLY
B23: Wildtype NTR: wild-type rat neurotensin receptor (protein)
chain: B22 chain with L44A, A218I, A300F, A316F
B24: Nag7n: NTR with F358A+H103A+I260A+F342A (protein)
chain: B22 chain with L44A, H61A
B25: E219A: A2aR point mutant (protein, UniProt P29274 1-412, looked up, variant E219A)
Adenosine receptor A2a: MPIMGSSVYITVELAIAVLAILGNVLVCWAVWLNSNLQNVTNYFVVSLAAADIAVGVLAIPFAITISTGFCAACHGCLFIACFVLVLTQSSIFSLLAIAIDRYIAIRIPLRYNGLVTGTRAKGIIAICWVLSFAIGLTPMLGWNNCGQPKEGKNHSQGCGEGQVACLFEDVVPMNYMVYFNFFACVLVPLLLMLGVYLRIFLAARRQLKQMESQPLPGARARSTLQKEVHAAKSLAIIVGLFALCWLPLHIINCFTFFCPDCSHAPLWLMYLAIVLSHTNSVVNPFIYAYRIREFRQTFRKIIRSHVLRQQEPFKAAGTSARVLAAHGSDGEQVSLRLNGHPPGVWANGSAPHPERRPNGYALGLVSGGSAQESQGNTGLPDVELLSHELKGVCPEPPGLDDPLAQDGAGVS
B26: R220A: A2aR point mutant (protein, UniProt P29274 1-412, looked up, variant R220A)
Adenosine receptor A2a: B25 Adenosine receptor A2a with A219E, R220A
B27: S223A: A2aR point mutant (protein, UniProt P29274 1-412, looked up, variant S223A)
Adenosine receptor A2a: B25 Adenosine receptor A2a with A219E, S223A

Legend:
[1] = Thermostability of neurotensin receptor (NTR) mutants (3H-neurotensin binding); format: physicochemical; settings: for thermostability, heated in the presence of 3H-neurotensin: Ligand(+) format
Description: (§1) FIG. 12 Flow chart showing the two different assay formats of ligand (+) and ligand (−) used to determine receptor thermostablity.
3. Mutants tested for thermostability by heating in the absence of the agonist were re-tested using a slightly different assay where the mutants were heated in the presence of ^3H-neurotensin (Ligand(+) format in FIG. 12). […] All of these also have increased thermostability. • 5. Preferred combinations are • a. Nag7m F358A+A86L+1260A+F342A Tm 51° C. (neurotensin bound) • b. Nag7n F358A+H103A+1260A+F342A Tm 51° C. (neurotensin bound) • Wildtype NTR has a Tm of 35° C. with neurotensin bound.

[2] = Thermostability of solubilised adenosine A2a receptor and mutants (radioligand binding after or during heating); format: physicochemical; settings: Ligand(−) format, binding after the heating step
From the text: as §1
• 1. 315 site-directed mutants made between residues 2-316 of A2aR. • 2. All of these mutants have been assayed for thermostability using an assay measuring agonist and antagonist binding after the heating step (Ligand(−) format as described in FIG. 12). • a. […] Mutations have been combined to generate mutants in a putative antagonist conformation. Wildtype A2aR has a Tm of 31° C. with ZM241385 bound. • a. Rant17 A54L+K122A+L235A Tm 48° C. (ZM241385 bound) • b. Rant19 A54L,T88A,V239A+A204L Tm 47° C. (ZM241385 bound) • c. Rant21 A54L,T88A,V239A+K122A Tm 49° C. (ZM241385 bound) • 4. Mutations from the agonist screen have been combined, but have led to only a very low level of improvement in Tm of +2° C.

Molecule | thermostability, heated in the presence of 3H-neurotensin [1] | also measured
B1 | improved thermostability | –
B2 | improved thermostability | –
B3 | improved thermostability | –
B4 | improved thermostability | –
B5 | improved thermostability | –
B6 | improved thermostability | –
B7 | improved thermostability | –
B8 | improved thermostability | –
B9 | improved thermostability | –
B10 | improved thermostability | –
B11 | improved thermostability | –
B12 | improved thermostability | –
B13 | improved thermostability | –
B14 | improved thermostability | –
B15 | improved thermostability | –
B16 | improved thermostability | –
B17 | improved thermostability | –
B18 | improved thermostability | –
B19 | improved thermostability | –
B20 | improved thermostability | –
B21 | improved thermostability | –
B22 | – | Tm (neurotensin bound) [1]: 51 °C
B23 | – | Tm (neurotensin bound) [1]: 35 °C
B24 | – | Tm (neurotensin bound) [1]: 51 °C
B25 | – | thermostability measured with 3H-NECA (agonist) [2]: improved thermostability
B26 | – | thermostability measured with 3H-NECA (agonist) [2]: improved thermostability
B27 | – | thermostability measured with 3H-NECA (agonist) [2]: improved thermostability
